# Experimental data reported in US20250235548A1 (Zymeworks, published 2025).
# T1: human sodium-dependent phosphate transporter 2B (NaPi2b) (human, UniProt O95436 1-690)
# T1 construct: also called hNaPi2b; Hu NaPi2b
# T1 sequence: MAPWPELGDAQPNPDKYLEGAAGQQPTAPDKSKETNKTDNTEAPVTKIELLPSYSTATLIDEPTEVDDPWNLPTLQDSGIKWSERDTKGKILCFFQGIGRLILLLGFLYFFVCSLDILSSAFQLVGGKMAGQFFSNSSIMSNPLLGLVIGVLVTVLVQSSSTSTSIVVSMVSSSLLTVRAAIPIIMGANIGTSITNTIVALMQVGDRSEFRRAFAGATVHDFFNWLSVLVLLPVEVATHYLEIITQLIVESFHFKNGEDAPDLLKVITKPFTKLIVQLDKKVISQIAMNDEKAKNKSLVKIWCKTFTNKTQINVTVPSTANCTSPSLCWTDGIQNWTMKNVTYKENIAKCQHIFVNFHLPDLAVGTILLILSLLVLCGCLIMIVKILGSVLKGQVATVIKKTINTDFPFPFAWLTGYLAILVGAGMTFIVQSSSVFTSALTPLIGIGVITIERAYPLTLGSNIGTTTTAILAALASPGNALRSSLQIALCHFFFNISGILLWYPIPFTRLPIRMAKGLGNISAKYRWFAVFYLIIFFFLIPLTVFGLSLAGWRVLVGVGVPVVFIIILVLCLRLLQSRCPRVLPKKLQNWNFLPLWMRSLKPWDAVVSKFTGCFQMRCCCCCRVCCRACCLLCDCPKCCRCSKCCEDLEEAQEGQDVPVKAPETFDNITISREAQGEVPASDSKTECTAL
# T2: cynomolgus monkey NaPi2b (cynomolgus monkey, UniProt O95436 1-690 (human entry))
# T2 construct: also called Cyno NaPi2b; Cy NaPi2b
# T2 chain: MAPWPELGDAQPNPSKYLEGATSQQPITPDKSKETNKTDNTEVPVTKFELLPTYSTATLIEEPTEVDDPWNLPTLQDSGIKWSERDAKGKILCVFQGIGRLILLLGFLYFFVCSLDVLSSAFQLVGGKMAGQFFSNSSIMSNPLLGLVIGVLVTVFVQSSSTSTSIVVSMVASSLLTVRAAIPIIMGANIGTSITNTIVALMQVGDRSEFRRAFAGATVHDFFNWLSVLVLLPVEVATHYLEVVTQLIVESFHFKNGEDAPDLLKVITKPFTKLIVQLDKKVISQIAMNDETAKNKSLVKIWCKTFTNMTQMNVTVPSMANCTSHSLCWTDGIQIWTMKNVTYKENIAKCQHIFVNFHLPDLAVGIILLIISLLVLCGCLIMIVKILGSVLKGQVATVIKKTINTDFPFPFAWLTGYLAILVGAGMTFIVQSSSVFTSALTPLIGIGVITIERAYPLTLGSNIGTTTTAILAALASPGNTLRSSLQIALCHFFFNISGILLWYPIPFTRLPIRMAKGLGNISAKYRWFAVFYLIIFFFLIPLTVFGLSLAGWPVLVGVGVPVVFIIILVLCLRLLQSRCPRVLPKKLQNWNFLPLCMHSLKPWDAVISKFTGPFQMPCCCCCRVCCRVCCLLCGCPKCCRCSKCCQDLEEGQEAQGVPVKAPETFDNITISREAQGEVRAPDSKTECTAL
# T3: human sodium-dependent phosphate transporter 2B (NaPi2b) (human, UniProt O95436 1-690)
# T3 construct: Multi-pass membrane transporter; It stood on HEK293-6e cells transfected with pTT5-huNaPi2b, or endogenously on the tumour cell lines IGROV-1, OVCAR-3, HCC-78, TOV-21G and NCI-H441; also called Hu NaPi2b; hNaPi2b
# T3 sequence: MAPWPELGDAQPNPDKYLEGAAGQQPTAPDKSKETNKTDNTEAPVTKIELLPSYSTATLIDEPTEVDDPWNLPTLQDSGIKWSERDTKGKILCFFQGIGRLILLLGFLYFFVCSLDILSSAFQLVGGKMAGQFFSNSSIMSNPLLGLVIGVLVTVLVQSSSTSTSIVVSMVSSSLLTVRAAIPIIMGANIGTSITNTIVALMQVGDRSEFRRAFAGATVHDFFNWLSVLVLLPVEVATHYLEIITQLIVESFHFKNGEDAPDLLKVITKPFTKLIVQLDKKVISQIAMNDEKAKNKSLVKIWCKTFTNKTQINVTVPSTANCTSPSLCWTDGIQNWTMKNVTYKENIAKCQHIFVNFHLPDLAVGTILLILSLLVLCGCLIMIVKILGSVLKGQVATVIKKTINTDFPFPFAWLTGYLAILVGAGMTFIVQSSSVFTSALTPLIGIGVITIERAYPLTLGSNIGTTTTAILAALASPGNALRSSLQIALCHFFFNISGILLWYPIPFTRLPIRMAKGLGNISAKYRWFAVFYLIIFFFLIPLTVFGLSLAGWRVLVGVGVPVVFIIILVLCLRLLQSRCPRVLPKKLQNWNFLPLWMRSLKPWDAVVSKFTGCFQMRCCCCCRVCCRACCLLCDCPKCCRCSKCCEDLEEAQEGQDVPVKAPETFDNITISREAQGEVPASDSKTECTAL
# How the values were obtained:
# [1] = target: T1, human sodium-dependent phosphate …; test: flow cytometry on IGROV-1 cells (endogenous NaPi2b), 24 h at 4 C, anti-human IgG Fc AF647, APC-A GeoMean
# Procedure: Briefly, cells were seeded at 50,000 cells/well in conical-bottom 96-well plates and treated with test antibody for 24 hours at 4° C. to prevent internalization. […] Following incubation and washing, fluorescence was detected by flow cytometry on a BD LSRFortessa™ Cell Analyzer (BD Biosciences, Franklin Lake, NJ) with 1,000 minimum events collected per well.
# [2] = target: T1, human sodium-dependent phosphate …; test: flow cytometry, IGROV-1, HCC-78 and H441 cells
# [3] = target: T1, human sodium-dependent phosphate …; test: KinExA, IGROV-1 cells, monovalent format
# Procedure: The cell-binding assay was set up using the antibody constructs or variants as constant binding partner at two different concentrations of 50 μM and 500 μM. For the titration curve with antibody variants fixed at 50 μM, at least 10 million IGROV-1 cells were used as titrant. For the titration curve with antibody variants fixed at 500 μM, at least 5 million cells were used as titrant. The antibody variants and cells were mixed in PBS pH 7.4, 1 mg/mL BSA, 0.2% NaN₃ and incubated at 4° C. for 7 days with gentle rotation until equilibrium was reached. After incubation, the mixture of antibody variants and cells was centrifuged to separate the cells from the unbound free antibody variants.
# N-curve analysis was used to calculate the affinity and receptor expression level with the concentrations of antibody variant as reference point.
# [4] = target: T4, KLH (Sigma-Aldrich, H8283); test: NS-ELISA, plate coated with KLH, mAb at 100 nM; ratio of signal to a buffer well
# T4 construct: Coating protein of the non-specific ELISA (NS-ELISA)
# Procedure: NS-ELISA was used to measure the propensity of the antibodies to bind to a range of biomolecules to emulate the undesirable non-specific interactions to biological matrices in vivo as described below.
# NS-ELISA was carried out in Corning@ 96-well EIA/RIA Easy Wash™ Clear Flat Bottom Polystyrene High Bind Microplate coated overnight at 4° C. with 50 μL of Heparin (Sigma, H3149) diluted with 50 mM sodium carbonate pH 9.6 to a final concentration of 250 μg/mL. The plate was incubated for 2 days at room temperature, wells that were coated with heparin were not covered to allow air dry. […] 50 μL each of insulin, KLH, dsDNA and ssDNA were added to a 96 well plate, followed by the incubation at 37° C. for 2 h. The coating materials were removed, and the plate was blocked with 200 μL of Gibco™ PBS pH7.4, 0.1% Tween®20, and incubated for 1 h at room temperature with shaking at 200 rpm. The plate was washed 3 times with Gibco™ PBS pH7.4, 0.1% Tween 20. 50 μL of each mAb at 100 nM (15 mg/mL) in Gibco™ PBS pH 7.4, 0.1% Tween®20 was added in duplicate to the wells and incubated for 1 h at room temperature with shaking at 200 rpm. […] Plates were incubated for 1 h at room temperature, with shaking at 200 rpm. The plate was washed three times with Gibco™ PBS pH7.4, 0.1% Tween 20, and 100 μL of TMB substrate (Cell Signaling Technology©, 7004P6) added to each well. […] Binding scores were calculated as the ratio of the ELISA signal of the antibody to the signal of a well containing buffer instead of the primary antibody. The cutoffs considered for each binding molecule (ssDNA. KLH, Insulin, dsDNA and Heparin) were internally calculated, based on the average of Zymeworks Inc. produced antibodies and antibodies benchmarks published in the literature.
# [5] = target: T1, human sodium-dependent phosphate …; test: cell-based or functional assay
# cynomolgus monkey NaPi2b = target: T2, cynomolgus monkey NaPi2b; test: flow cytometry, HEK293-6e cells transfected with cynomolgus NaPi2b
# [6] = target: T3, human sodium-dependent phosphate …; test: flow cytometry on HEK293-6e cells transfected with human NaPi2b
# Procedure: Following transfection, cells were seeded at 50,000 cells/well in conical-bottom 96-well plates and treated with test antibody or antibody-drug conjugate for 24 hours at 4° C. to prevent internalization. […] Following incubation and washing, fluorescence was detected by flow cytometry on a BD LSRFortessa™ Cell Analyzer (BD Biosciences, Franklin Lake, NJ) with 1,000 minimum events collected per well.
binder,measurement,setting,value
"v18992 (MX35)-DL2 antibody-drug conjugate (antibody, human IgG1, kappa, maleimide functionalized auristatin drug linker (DL2); sites and DAR not stated, also called MX35-DL2 ADC) heavy 1: GQVQLVQSGAEVVKPGASVKMSCKASGYTFTGYNIHWVKQAPGQGLEWIGAIYPGNGDTSYKQKFRGRATLTADTSTSTVYMELSSLRSEDSAVYYCARGETARATFAYWGQGTLVTVSSASTKGPSVFPLAPSSKSTSGGTAALGCLVKDYFPEPVTVSWNSGALTSGVHTFPAVLQSSGLYSLSSVVTVPSSSLGTQTYICNVNHKPSNTKVDKKVEPKSCDKTHTCPPCPAPELLGGPSVFLFPPKPKDTLMISRTPEVTCVVVDVSHEDPEVKFNWYVDGVEVHNAKTKPREEQYNSTYRVVSVLTVLHQDWLNGKEYKCKVSNKALPAPIEKTISKAKGQPREPQVYVYPPSRDELTKNQVSLTCLVKGFYPSDIAVEWESNGQPENNYKTTPPVLDSDGSFALVSKLTVDKSRWQQGNVFSCSVMHEALHNHYTQKSLSLSPG heavy 2: not shown light: GDIQMTQSPSSLSASVGDRVTITCSASQDIGNFLNWYQQKPGKTVKVLIYYTSSLYSGVPSRFSGSGSGTDYTLTISSLQPEDFATYYCQQYSKLPLTFGQGTKLELKRTVAAPSVFIFPPSDEQLKSGTASVVCLLNNFYPREAKVQWKVDNALQSGNSQESVTEQDSKDSTYSLSSTLTLSKADYEKHKVYACEVTHQGLSSPVTKSFNRGEC",EC50 (read off the curve),[1],~1 nM
"v21995 (palivizumab), anti-RSV negative control antibody (antibody, human IgG1, kappa, V domains shown) VH: QVTLRESGPALVKPTQTLTLTCTFSGFSLSTSGMSVGWIRQPPGKALEWLADIWWDDKKDYNPSLKSRLTISKDTSKNQVVLKVTNMDPADTATYYCARSMITNWYFDVWGAGTTVTVSS VL: DIQMTQSPSTLSASVGDRVTITCKSQLSVGYMHWYQQKPGKAPKLLIYDTSKLASGVPSRFSGSGSGTEFTLTISSLQPDDFATYYCFQGSGYPFTFGGGTKLEIKR",binding result,[2],no binding
"v36123, monovalent format of humanized antibody variant 29452 (antibody, V domains shown, also called VH1/VL3) VH: QVQLVQSGAEVKKPGASVKVSCKASGFTFTSYNVHWVRQAPGQGLEWMGAISPGNGDLSYAQKFQGRVTMTRDTSTSTVYMELSSLRSEDTAVYYCARGRTGMGAVDYWGQGTLVTVSS VL: DVQMTQSPSSLSASVGDRVTITCRASQDVYSYLNWYQQKPGKAVKLLIYYTSRLQSGVPSRFSGSGSGTDYTLTISSLQPEDIATYYCQQYNIFPWTFGQGTKLEIK",fold lower binding affinity than chimeric parental antibody construct,[3],~2 fold
"v36124, monovalent format of humanized antibody variant 29456 (antibody, V domains shown, also called VH1/VL2) VH: QVQLVQSGAEVKKPGASVKVSCKASGFTFTSYNVHWVRQAPGQGLEWMGAISPGNGDLSYAQKFQGRVTMTRDTSTSTVYMELSSLRSEDTAVYYCARGRTGMGAVDYWGQGTLVTVSS VL: DVQMTQSPSSLSASVGDRVTITCRASQDVYSYLNWYQQKPGKAVKLLIYYTSRLQSGVPSRFSGSGSGTDYTLTISSLQPEDFATYYCQQYNIFPWTFGQGTKLEIK",fold lower binding affinity than chimeric parental antibody construct,[3],~2 fold
"v23855, parental mouse-human chimeric anti-NaPi2b antibody (antibody, human IgG1, kappa, V domains shown, Full-size antibody; also called parental chimeric) VH: QAYLQQSGAELVRPGASVKMSCKASGFTFTSYNVHWVKQTPRQGLEWIAAISPGNGDLSYNQRFKDKATLTVDRSSSTAYMQLSGLTSEDSAVYFCARGRTGMGAVDYWGQGTSVTVSS VL: DVQMTQTASSLSASLGDRVTISCRASQDVYSYLNWYQQKPHGTVKLLIYYTSRLQSGVPSRFTGSGSGTDYSLTISNLEPEDIATYYCQQYNIFPWTFGGGTKLEIKR",NS-ELISA binding score,[4],2.38
"v29456 humanized anti-NaPi2b antibody (antibody, human IgG1, kappa, Full-size IgG1/kappa; also called H1L2) heavy: not shown light: DVQMTQSPSSLSASVGDRVTITCRASQDVYSYLNWYQQKPGKAVKLLIYYTSRLQSGVPSRFSGSGSGTDYTLTISSLQPEDFATYYCQQYNIFPWTFGQGTKLEIKRTVAAPSVFIFPPSDEQLKSGTASVVCLLNNFYPREAKVQWKVDNALQSGNSQESVTEQDSKDSTYSLSSTLTLSKADYEKHKVYACEVTHQGLSSPVTKSFNRGEC","Internalized Fluorescence Fold-Over Palivizumab, HCC-78, 5 hrs, 10 nM",[5],25.3 fold
same,"Internalized Fluorescence Fold-Over Palivizumab, HCC-78, 24 hrs, 10 nM",[5],59.9 fold
same,"Internalized Fluorescence Fold-Over Palivizumab, NCI-H441, 5 hrs, 10 nM",[5],2.4 fold
same,"Internalized Fluorescence Fold-Over Palivizumab, NCI-H441, 24 hrs, 10 nM",[5],4 fold
same,NS-ELISA binding score,[4],1.37
same,fold lower apparent Kd than v18992 (MX35),cynomolgus monkey NaPi2b,10 fold
same,fold lower apparent Kd than v18993 (lifastuzumab),cynomolgus monkey NaPi2b,2 fold
"humanized anti-NaPi2b antibody variant v38591 (antibody, human IgG1, kappa, Human IgG1/kappa full-size antibody; It is identical to v29456 except that the heavy chains include a C-terminal lysine; also called v38591 (H1L2)) heavy: not shown light: DVQMTQSPSSLSASVGDRVTITCRASQDVYSYLNWYQQKPGKAVKLLIYYTSRLQSGVPSRFSGSGSGTDYTLTISSLQPEDFATYYCQQYNIFPWTFGQGTKLEIKRTVAAPSVFIFPPSDEQLKSGTASVVCLLNNFYPREAKVQWKVDNALQSGNSQESVTEQDSKDSTYSLSSTLTLSKADYEKHKVYACEVTHQGLSSPVTKSFNRGEC",Bmax,[6],65
